# Test results taken from IntAct's records for PubMed 25752543.
# B1: Neuropilin-2 (Homo sapiens), O60462 (parent)
# chain: MDMFPLTWVFLALYFSRHQVRGQPDPPCGGRLNSKDAGYITSPGYPQDYPSHQNCEWIVYAPEPNQKIVLNFNPHFEIEKHDCKYDFIEIRDGDSESADLLGKHCGNIAPPTIISSGSMLYIKFTSDYARQGAGFSLRYEIFKTGSEDCSKNFTSPNGTIESPGFPEKYPHNLDCTFTILAKPKMEIILQFLIFDLEHDPLQVGEGDCKYDWLDIWDGIPHVGPLIGKYCGTKTPSELRSSTGILSLTFHTDMAVAKDGFSARYYLVHQEPLENFQCNVPLGMESGRIANEQISASSTYSDGRWTPQQSRLHGDDNGWTPNLDSNKEYLQVDLRFLTMLTAIATQGAISRETQNGYYVKSYKLEVSTNGEDWMVYRHGKNHKVFQANNDATEVVLNKLHAPLLTRFVRIRPQTWHSGIALRLELFGCRVTDAPCSNMLGMLSGLIADSQISASSTQEYLWSPSAARLVSSRSGWFPRIPQAQPGEEWLQVDLGTPKTVKGVIIQGARGGDSITAVEARAFVRKFKVSYSLNGKDWEYIQDPRTQQPKLFEGNMHYDTPDIRRFDPIPAQYVRVYPERWSPAGIGMRLEVLGCDWTDSKPTVETLGPTVKSEETTTPYPTEEEATECGENCSFEDDKDLQLPSGFNCNFDFLEEPCGWMYDHAKWLRTTWASSSSPNDRTFPDDRNFLRLQSDSQREGQYARLISPPVHLPRSPVCMEFQYQATGGRGVALQVVREASQESKLLWVIREDQGGEWKHGRIILPSYDMEYQIVFEGVIGKGRSGEIAIDDIRISTDVPLENCMEPISAFAGENFKVDIPEIHEREGYEDEIDDEYEVDWSNSSSATSGSGAPSTDKEKSWLYTLDPILITIIAMSSLGVLLGATCAGLLLYCTCSYSGLSSRSCTTLENYNFELYDGLKHKVKMNHQKCCSEA
# partner: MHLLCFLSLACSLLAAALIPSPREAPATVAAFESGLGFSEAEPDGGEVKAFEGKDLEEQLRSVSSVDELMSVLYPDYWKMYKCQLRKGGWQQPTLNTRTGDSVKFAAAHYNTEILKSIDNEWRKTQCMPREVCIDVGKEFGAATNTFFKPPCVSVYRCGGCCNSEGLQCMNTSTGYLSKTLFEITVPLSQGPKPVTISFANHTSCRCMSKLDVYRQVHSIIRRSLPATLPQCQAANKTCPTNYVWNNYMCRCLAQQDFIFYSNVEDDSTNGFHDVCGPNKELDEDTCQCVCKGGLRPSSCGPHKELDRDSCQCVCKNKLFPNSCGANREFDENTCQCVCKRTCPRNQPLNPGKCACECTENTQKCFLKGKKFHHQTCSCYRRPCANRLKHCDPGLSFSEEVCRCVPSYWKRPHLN
# B2: Vascular endothelial growth factor C (Mus musculus), P97953-1 (parent)
# chain: B1 partner
# partner: B1 chain
# Variants of: B1
# Conditions: with Vegfc
row,Variant,effect of a mutation on the interaction
1,T319R,disrupting interaction strength

# Variants of: B2
# Conditions: with nrp2_human NRP2, O60462
row,Variant,effect of a mutation on the interaction
1,MHLLCFLSLACSLLAAALIPSPREAPATVAAFESGLGFSEAEPDGGEVKAFEGKDLEEQLRSVSSVDELMSVLYPDYWKMYKCQLRKGGWQQPTLNTRTGDSVKFAAAHYNTEILKSIDNEWRKTQCMPREVCIDVGKEFGAATNTFFKPPCVSVYRCGGCCNSEGLQCMNTSTGYLSKTLFEITVPLSQGPKPVTISFANHTSCRCMSKLDVYRQVHSIIRESLPATLPQCQAANKTCPTNYVWNNYMCRCLAQQDFIFYSNVEDDSTNGFHDVCGPNKELDEDTCQCVCKGGLRPSSCGPHKELDRDSCQCVCKNKLFPNSCGANREFDENTCQCVCKRTCPRNQPLNPGKCACECTENTQKCFLKGKKFHHQTCSCYRRPCANRLKHCDPGLSFSEEVCRCVPSYWKRPHLN [R223E],decreasing interaction strength
